Reference: the Human Domainome abundance scans (Beltran et al. 2025)
± gives the uncertainty stated by the source.

B1: Peroxisome proliferator-activated receptor delta, residues 71 to 145; numbered along this chain, Q03181 (parent)
chain: NMECRVCGDKASGFHYGVHACEGCKGFFRRTIRMKLEYEKCERSCKIQKKNRNKCQYCRFQKCLALGMSHNAIRF

Variants of: B1
Assay: abundance fitness (aPCA) (normalised: wild type 0, dead -1); higher = more abundant; growth selection in yeast, the domain comes from the species named
Conditions: Homo sapiens
NMECRVCGDKASGAHYGVHACEGCKGFFRRTIRMKLEYEKCERSCKIQKKNRNKCQYCRFQKCLALGMSHNAIRF [F14A] gave an abundance fitness of -0.028 ± 0.039.
Variant NMECRVCGDKASGEHYGVHACEGCKGFFRRTIRMKLEYEKCERSCKIQKKNRNKCQYCRFQKCLALGMSHNAIRF [F14E] has an abundance fitness of 0.066 ± 0.042.
NMECRVCGDKASGKHYGVHACEGCKGFFRRTIRMKLEYEKCERSCKIQKKNRNKCQYCRFQKCLALGMSHNAIRF [F14K] gave an abundance fitness of 0.006 ± 0.054.
For NMECRVCGDKASGTHYGVHACEGCKGFFRRTIRMKLEYEKCERSCKIQKKNRNKCQYCRFQKCLALGMSHNAIRF [F14T], the abundance fitness was 0.066 ± 0.042.
Work on NMECRVCGDKASGHHYGVHACEGCKGFFRRTIRMKLEYEKCERSCKIQKKNRNKCQYCRFQKCLALGMSHNAIRF [F14H] yielded an abundance fitness of -0.098 ± 0.077.
For NMECRVCGDKASGWHYGVHACEGCKGFFRRTIRMKLEYEKCERSCKIQKKNRNKCQYCRFQKCLALGMSHNAIRF [F14W], the abundance fitness was -0.118 ± 0.052.
In the case of NMECRVCGDKASGVHYGVHACEGCKGFFRRTIRMKLEYEKCERSCKIQKKNRNKCQYCRFQKCLALGMSHNAIRF [F14V], the abundance fitness is reported as 0.018 ± 0.037.
With NMECRVCGDKASGCHYGVHACEGCKGFFRRTIRMKLEYEKCERSCKIQKKNRNKCQYCRFQKCLALGMSHNAIRF [F14C] the abundance fitness was -0.076 ± 0.059.
In the case of NMECRVCGDKASGIHYGVHACEGCKGFFRRTIRMKLEYEKCERSCKIQKKNRNKCQYCRFQKCLALGMSHNAIRF [F14I], the abundance fitness is reported as 0.002 ± 0.064.
NMECRVCGDKASGLHYGVHACEGCKGFFRRTIRMKLEYEKCERSCKIQKKNRNKCQYCRFQKCLALGMSHNAIRF [F14L] showed an abundance fitness of 0.085 ± 0.034.
In the case of NMECRVCGDKASGQHYGVHACEGCKGFFRRTIRMKLEYEKCERSCKIQKKNRNKCQYCRFQKCLALGMSHNAIRF [F14Q], the abundance fitness is reported as -0.064 ± 0.056.
NMECRVCGDKASGPHYGVHACEGCKGFFRRTIRMKLEYEKCERSCKIQKKNRNKCQYCRFQKCLALGMSHNAIRF [F14P] showed an abundance fitness of -0.14 ± 0.051.
Work on NMECRVCGDKASGRHYGVHACEGCKGFFRRTIRMKLEYEKCERSCKIQKKNRNKCQYCRFQKCLALGMSHNAIRF [F14R] yielded an abundance fitness of -0.138 ± 0.035.
With NMECRVCGDKASGGHYGVHACEGCKGFFRRTIRMKLEYEKCERSCKIQKKNRNKCQYCRFQKCLALGMSHNAIRF [F14G] the abundance fitness was -0.299 ± 0.039.
Variant NMECRVCGDKASGMHYGVHACEGCKGFFRRTIRMKLEYEKCERSCKIQKKNRNKCQYCRFQKCLALGMSHNAIRF [F14M] has an abundance fitness of -0.059 ± 0.053.
NMECRVCGDKASGYHYGVHACEGCKGFFRRTIRMKLEYEKCERSCKIQKKNRNKCQYCRFQKCLALGMSHNAIRF [F14Y] showed an abundance fitness of 0.038 ± 0.063.
NMECRVCGDKASGDHYGVHACEGCKGFFRRTIRMKLEYEKCERSCKIQKKNRNKCQYCRFQKCLALGMSHNAIRF [F14D] gave an abundance fitness of 0.014 ± 0.052.
In the case of NMECRVCGDKASGNHYGVHACEGCKGFFRRTIRMKLEYEKCERSCKIQKKNRNKCQYCRFQKCLALGMSHNAIRF [F14N], the abundance fitness is reported as -0.066 ± 0.067.
For NMECRVCGDKALGFHYGVHACEGCKGFFRRTIRMKLEYEKCERSCKIQKKNRNKCQYCRFQKCLALGMSHNAIRF [S12L], the abundance fitness was -0.395 ± 0.059.
With NMECRVCGDKACGFHYGVHACEGCKGFFRRTIRMKLEYEKCERSCKIQKKNRNKCQYCRFQKCLALGMSHNAIRF [S12C] the abundance fitness was -0.103 ± 0.069.
Work on NMECRVCGDKAWGFHYGVHACEGCKGFFRRTIRMKLEYEKCERSCKIQKKNRNKCQYCRFQKCLALGMSHNAIRF [S12W] yielded an abundance fitness of -0.579 ± 0.079.
For NMECRVCGDKAEGFHYGVHACEGCKGFFRRTIRMKLEYEKCERSCKIQKKNRNKCQYCRFQKCLALGMSHNAIRF [S12E], the abundance fitness was -0.123 ± 0.052.
NMECRVCGDKAHGFHYGVHACEGCKGFFRRTIRMKLEYEKCERSCKIQKKNRNKCQYCRFQKCLALGMSHNAIRF [S12H] showed an abundance fitness of -0.238 ± 0.092.
Variant NMECRVCGDKAKGFHYGVHACEGCKGFFRRTIRMKLEYEKCERSCKIQKKNRNKCQYCRFQKCLALGMSHNAIRF [S12K] has an abundance fitness of -0.248 ± 0.06.
For NMECRVCGDKAAGFHYGVHACEGCKGFFRRTIRMKLEYEKCERSCKIQKKNRNKCQYCRFQKCLALGMSHNAIRF [S12A], the abundance fitness was -0.119 ± 0.042.
NMECRVCGDKANGFHYGVHACEGCKGFFRRTIRMKLEYEKCERSCKIQKKNRNKCQYCRFQKCLALGMSHNAIRF [S12N] showed an abundance fitness of -0.098 ± 0.067.
NMECRVCGDKAYGFHYGVHACEGCKGFFRRTIRMKLEYEKCERSCKIQKKNRNKCQYCRFQKCLALGMSHNAIRF [S12Y] gave an abundance fitness of -0.138 ± 0.072.
With NMECRVCGDKAFGFHYGVHACEGCKGFFRRTIRMKLEYEKCERSCKIQKKNRNKCQYCRFQKCLALGMSHNAIRF [S12F] the abundance fitness was -0.115 ± 0.086.
Work on NMECRVCGDKARGFHYGVHACEGCKGFFRRTIRMKLEYEKCERSCKIQKKNRNKCQYCRFQKCLALGMSHNAIRF [S12R] yielded an abundance fitness of -0.351 ± 0.046.
With NMECRVCGDKAGGFHYGVHACEGCKGFFRRTIRMKLEYEKCERSCKIQKKNRNKCQYCRFQKCLALGMSHNAIRF [S12G] the abundance fitness was -0.274 ± 0.046.
In the case of NMECRVCGDKAPGFHYGVHACEGCKGFFRRTIRMKLEYEKCERSCKIQKKNRNKCQYCRFQKCLALGMSHNAIRF [S12P], the abundance fitness is reported as -0.39 ± 0.07.
NMECRVCGDKATGFHYGVHACEGCKGFFRRTIRMKLEYEKCERSCKIQKKNRNKCQYCRFQKCLALGMSHNAIRF [S12T] gave an abundance fitness of -0.06 ± 0.048.
NMECRVCGDKAQGFHYGVHACEGCKGFFRRTIRMKLEYEKCERSCKIQKKNRNKCQYCRFQKCLALGMSHNAIRF [S12Q] gave an abundance fitness of -0.115 ± 0.057.
With NMECRVCGDKAIGFHYGVHACEGCKGFFRRTIRMKLEYEKCERSCKIQKKNRNKCQYCRFQKCLALGMSHNAIRF [S12I] the abundance fitness was -0.121 ± 0.11.
In the case of NMECRVCGDKAVGFHYGVHACEGCKGFFRRTIRMKLEYEKCERSCKIQKKNRNKCQYCRFQKCLALGMSHNAIRF [S12V], the abundance fitness is reported as -0.222 ± 0.045.
In the case of NMECRVCGDKASFFHYGVHACEGCKGFFRRTIRMKLEYEKCERSCKIQKKNRNKCQYCRFQKCLALGMSHNAIRF [G13F], the abundance fitness is reported as -0.838 ± 0.17.
